Data published in patent CN115141278A (BIO THERA SOLUTIONS LTD, dated 2022).

Biological target: T1, 食蟹猴VISTA-Fc (cynomolgus monkey, UniProt A0A7N9IB00 33-194)
T1 construct: Bought reagent; also called VISTA-Fc(食蟹猴，Sino biological Inc); not shown: Fc part
T1 sequence: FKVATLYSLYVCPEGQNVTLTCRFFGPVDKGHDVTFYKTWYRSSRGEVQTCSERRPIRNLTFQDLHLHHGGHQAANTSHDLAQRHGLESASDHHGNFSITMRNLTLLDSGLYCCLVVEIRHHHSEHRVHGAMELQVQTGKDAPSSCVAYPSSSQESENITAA
Experiment: ELISA on coated VISTA-Fc, anti-human kappa-HRP detection

EC50: 0.065 µg/mL
B1: 阳性参照抗体VSTB112 (antibody, V domains shown)
VH: QVQLVQSGAEVKKPGSSVKVSCKASGGTFSSYAISWVRQAPGQGLEWMGGIIPIFGTANYAQKFQGRVTITADESTSTAYMELSSLRSEDTAVYYCARSSYGWSYEFDYWGQGTLVTVSS
VL: DIQMTQSPSSLSASVGDRVTITCRASQSIDTRLNWYQQKPGKAPKLLIYSASSLQSGVPSRFSGSGSGTDFTLTISSLQPEDFATYYCQQSAYNPITFGQGTKVEIKR
